Assay results from paper PMC5358978, “Nuclear export receptor CRM1 recognizes diverse conformations in nuclear export signals” (eLife, 2017).

Legend:
wild type ^HsCRM1 = experiment: Pull-down binding assay with immobilized GST-NESs; design: species or system human; conditions: ~5 µg immobilized GST-NESs, 7.5 µM ^ScRanGTP, 2.5 µM CRM1, 200 µL
CRM1 = conditions: ref Xu et al., 2012c, 2015; cited from earlier work
Excerpt: What then are CRM1 groove features that selectively recognize the key NES features? Arrangement of hydrophobic pockets in the groove likely selects NESs with suitably placed Φ residues. Groove shape, tapering and most constricted at ^ScCRM1 Lys579 (^HsCRM1 Lys568), likely selects for NES helices that transition to strands or NES helices that end (Figure 3C). Is groove-constricting ^HsCRM1 Lys568 perhaps key for differentiating active from false positive NES sequences? We tested mutants ^HsCRM1(K568A) and ^HsCRM1(K568M) for interactions with three previously identified false positive NESs that ...

HeLa cells = experiment: In vivo NES activity assay, EYFP2-SV40^NLS-NES reporter, spinning disk confocal microscope; assay type: cell-based; conditions: EYFP2-SV40^NLS-FMRP-1b^NES expressed in HeLa cells; 60X
Excerpt: Figure 2. Structures of NESs with non-helical sequence patterns. (A–E) FMRP^NES (light orange), SMAD4^NES (salmon), HDAC^NES (slate), Pax^NES (pale cyan) and FMRP-1b^NES (deep teal) bound to the ^ScCRM1 groove. […] Average displacements of each Φ Cα in the eight NESs (including mDia2^NES, CDC7^NES, X11L2^NES in Figure 1) from the equivalent Φ Cα of PKI^NES(Ф0L) are 1.3 ± 0.6 (Φ4), 0.8 ± 0.5 (Φ3), 0.7 ± 0.4 (Φ2), 0.9 ± 0.3 (Φ1) and 1.8 ± 0.9 (Φ0) Å. DOI: http://dx.doi.org/10.7554/eLife.23961.012 Figure 2—figure supplement 1. Electron densities of the NES peptides. […] DOI: http://dx.doi.org/10.7554/eLife.23961.013 [drawing 7] Figure 2—figure supplement 2. Engineering class 1b NESs. (A) Sequences of class 1b NESs generated from PKI^NES and FMRP^NES. […] The reactions were extensively washed and visualized with SDS/PAGE and Coomassie staining. (B) Leptomycin B (LMB) sensitive nuclear export activity of FMRP-1b^NES was verified by expressing EYFP2-SV40^NLS-FMRP-1b^NES in HeLa cells and imaged with spinning disk confocal microscope (60X). DOI: http://dx.doi.org/10.7554/eLife.23961.014 [drawing 8]

^HsCRM1 = ^HsCRM1 (Homo sapiens, UniProt O14980); experiment: Differential bleaching, competition titration of MBP-NES to FITC-PKI^NES and CRM1 with excess RanGTP; assay type: binding
[1] = MBP-NES competes with FITC-PKI^NES for CRM1, excess RanGTP, triplicate, brackets = 68.3% confidence interval

Substance	Kd (^HsCRM1; [1]) [µM]	also measured
173KTLSEVEESISTLISQPN^190 [COMMD1^pep, False positive NES peptide from COMM domain-containing protein 1, class 3 match; GST fusion in pull-down]	–	Pull-down binding to wild type ^HsCRM1 (wild type ^HsCRM1): does not bind; CRM1 binding of false positive NESs that match NES consensus (CRM1): do not bind CRM1
GGS-YLKEVDQLRALERLQID [MBP-FMRP-1b^NES, Engineered class 1b NES, an alanine added to FMRP^NES; tested as MBP fusion and as EYFP2-SV40^NLS reporter]	3	Leptomycin B (LMB) sensitive nuclear export activity (HeLa cells): verified
MBP-HDAC5^NES: MBP fusion of the NES of Histone deacetylase 5	1.6	–
MBP-Pax^NES: MBP fusion of the NES of Paxillin	0.67	–
MBP-X11L2^NES: MBP fusion of the NES from beta-amyloid binding protein X11L2	1.5	–
YLKEVDQLRALER [MBP-FMRP-1b^NES mutant]	–	CRM1 binding in words, differential bleaching competition (^HsCRM1; excess RanGTP): does not bind CRM1; Kd (^HsCRM1; triplicate competition titrations, brackets = 68.3% confidence level, U = undetermined, NB = not binding): 1700 µM

Further lines, with some results ahead:

Kd (^HsCRM1; [1]) [µM]	Substance	also measured
20	MBP-CDC7^NES: MBP fusion of the NES of cell division cycle 7-related protein kinase	–
2	MBP-FMRP^NES: MBP fusion of the class 2 NES of fragile X mental retardation protein	–
4.6	MBP-SMAD4^NES: MBP fusion of the NES of Mothers against decapentaplegic homolog 4 protein	–
